Results reported in the supplement of paper PMC10567573.

B1: FAM164A (parent)
chain: YDPDYIQCPYCQRRFNENAADRHI

Variants of: B1
Assay: protein stability index of a GFP-peptide fusion (GPS, HEK-293T) (PSI 1-6); higher = more stable
Details: c terminus: a fixed tail appended
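Note: lentivirally expressed fusions sorted by FACS into six bins by GFP to DsRed ratio, PSI derived from sequencing read proportions per bin multiplied by bin number.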

Variant	protein stability index
YDPDIIQCPYCQRRFNENAADRHI [Y5I]	4.41
YDPDKIQCPYCQRRFNENAADRHI [Y5K]	3.21
YDPDLIQCPYCQRRFNENAADRHI [Y5L]	4.25
YDPDMIQCPYCQRRFNENAADRHI [Y5M]	4.9
YDPDNIQCPYCQRRFNENAADRHI [Y5N]	4.11
YDPDPIQCPYCQRRFNENAADRHI [Y5P]	3.84
YDPDQIQCPYCQRRFNENAADRHI [Y5Q]	4.12
YDPDRIQCPYCQRRFNENAADRHI [Y5R]	3.52
YDPDSIQCPYCQRRFNENAADRHI [Y5S]	4.37
YDPDTIQCPYCQRRFNENAADRHI [Y5T]	4.14
YDPDVIQCPYCQRRFNENAADRHI [Y5V]	4.41
YDPDWIQCPYCQRRFNENAADRHI [Y5W]	4.68
YDPDYAQCPYCQRRFNENAADRHI [I6A]	3.58
YDPDYCQCPYCQRRFNENAADRHI [I6C]	3.7
YDPDYDQCPYCQRRFNENAADRHI [I6D]	3.6
YDPDYEQCPYCQRRFNENAADRHI [I6E]	3.5
YDPDYFQCPYCQRRFNENAADRHI [I6F]	3.29
YDPDYGQCPYCQRRFNENAADRHI [I6G]	3.29
YDPDYHQCPYCQRRFNENAADRHI [I6H]	3.71
YDPDYKQCPYCQRRFNENAADRHI [I6K]	3.71
YDPDYLQCPYCQRRFNENAADRHI [I6L]	3.27
YDPDYMQCPYCQRRFNENAADRHI [I6M]	3.42
YDPDYNQCPYCQRRFNENAADRHI [I6N]	3.55
YDPDYPQCPYCQRRFNENAADRHI [I6P]	3.37

Variant	protein stability index
YDPDYQQCPYCQRRFNENAADRHI [I6Q]	4.03
YDPDYRQCPYCQRRFNENAADRHI [I6R]	3.63
YDPDYSQCPYCQRRFNENAADRHI [I6S]	3.44
YDPDYTQCPYCQRRFNENAADRHI [I6T]	3.56
YDPDYVQCPYCQRRFNENAADRHI [I6V]	4.14
YDPDYWQCPYCQRRFNENAADRHI [I6W]	2.8
YDPDYYQCPYCQRRFNENAADRHI [I6Y]	3.23
YDPDYIACPYCQRRFNENAADRHI [Q7A]	3.27
YDPDYICCPYCQRRFNENAADRHI [Q7C]	3.57
YDPDYIDCPYCQRRFNENAADRHI [Q7D]	2.64
YDPDYIECPYCQRRFNENAADRHI [Q7E]	3.87
YDPDYIFCPYCQRRFNENAADRHI [Q7F]	3.15
YDPDYIGCPYCQRRFNENAADRHI [Q7G]	2.54
YDPDYIHCPYCQRRFNENAADRHI [Q7H]	2.76
YDPDYIICPYCQRRFNENAADRHI [Q7I]	4.76
YDPDYIKCPYCQRRFNENAADRHI [Q7K]	3.94
YDPDYILCPYCQRRFNENAADRHI [Q7L]	3.48
YDPDYIMCPYCQRRFNENAADRHI [Q7M]	3.33
YDPDYINCPYCQRRFNENAADRHI [Q7N]	2.89
YDPDYIPCPYCQRRFNENAADRHI [Q7P]	2.88
YDPDYIRCPYCQRRFNENAADRHI [Q7R]	3.79
YDPDYISCPYCQRRFNENAADRHI [Q7S]	3.27
YDPDYITCPYCQRRFNENAADRHI [Q7T]	4.57
YDPDYIVCPYCQRRFNENAADRHI [Q7V]	4.7

Variant	protein stability index
YDPDYIWCPYCQRRFNENAADRHI [Q7W]	2.83
YDPDYIYCPYCQRRFNENAADRHI [Q7Y]	3.77
YDPDYIQAPYCQRRFNENAADRHI [C8A]	3.88
YDPDYIQDPYCQRRFNENAADRHI [C8D]	4.24
YDPDYIQEPYCQRRFNENAADRHI [C8E]	4.37
YDPDYIQFPYCQRRFNENAADRHI [C8F]	3.17
YDPDYIQGPYCQRRFNENAADRHI [C8G]	3.81
YDPDYIQHPYCQRRFNENAADRHI [C8H]	3.46
YDPDYIQIPYCQRRFNENAADRHI [C8I]	3.13
YDPDYIQKPYCQRRFNENAADRHI [C8K]	3.54
YDPDYIQLPYCQRRFNENAADRHI [C8L]	3.56
YDPDYIQMPYCQRRFNENAADRHI [C8M]	3.63
YDPDYIQNPYCQRRFNENAADRHI [C8N]	3.65
YDPDYIQPPYCQRRFNENAADRHI [C8P]	3.72
YDPDYIQQPYCQRRFNENAADRHI [C8Q]	3.7
YDPDYIQRPYCQRRFNENAADRHI [C8R]	3.12
YDPDYIQSPYCQRRFNENAADRHI [C8S]	3.68
YDPDYIQTPYCQRRFNENAADRHI [C8T]	4.23
YDPDYIQVPYCQRRFNENAADRHI [C8V]	3.81
YDPDYIQWPYCQRRFNENAADRHI [C8W]	2.96
YDPDYIQYPYCQRRFNENAADRHI [C8Y]	3.43
YDPDYIQCAYCQRRFNENAADRHI [P9A]	2.38
YDPDYIQCCYCQRRFNENAADRHI [P9C]	2.59
YDPDYIQCDYCQRRFNENAADRHI [P9D]	3.09

Variant	protein stability index
YDPDYIQCEYCQRRFNENAADRHI [P9E]	3.11
YDPDYIQCFYCQRRFNENAADRHI [P9F]	2.18
YDPDYIQCGYCQRRFNENAADRHI [P9G]	2.54
YDPDYIQCHYCQRRFNENAADRHI [P9H]	2.83
YDPDYIQCIYCQRRFNENAADRHI [P9I]	2.29
YDPDYIQCKYCQRRFNENAADRHI [P9K]	2.58
YDPDYIQCLYCQRRFNENAADRHI [P9L]	2.09
YDPDYIQCMYCQRRFNENAADRHI [P9M]	2.39
YDPDYIQCNYCQRRFNENAADRHI [P9N]	2.75
YDPDYIQCQYCQRRFNENAADRHI [P9Q]	3.14
YDPDYIQCRYCQRRFNENAADRHI [P9R]	2.58
YDPDYIQCSYCQRRFNENAADRHI [P9S]	2.95
YDPDYIQCTYCQRRFNENAADRHI [P9T]	2.55
YDPDYIQCVYCQRRFNENAADRHI [P9V]	2.44
YDPDYIQCWYCQRRFNENAADRHI [P9W]	2.52
YDPDYIQCYYCQRRFNENAADRHI [P9Y]	2.07
YDPDYIQCPACQRRFNENAADRHI [Y10A]	4.5
YDPDYIQCPCCQRRFNENAADRHI [Y10C]	3.23
YDPDYIQCPDCQRRFNENAADRHI [Y10D]	3.36
YDPDYIQCPECQRRFNENAADRHI [Y10E]	3.26
YDPDYIQCPFCQRRFNENAADRHI [Y10F]	4.28
YDPDYIQCPGCQRRFNENAADRHI [Y10G]	3.32
